Test results from JP2024028198A (dated 2024).

Biological target: ヒトPAD4 (human, UniProt Q9UM07 1-663, limits assumed)
Assay: cell-based or functional assay

Chain of ヒトPAD4 (Q9UM07 whole entry): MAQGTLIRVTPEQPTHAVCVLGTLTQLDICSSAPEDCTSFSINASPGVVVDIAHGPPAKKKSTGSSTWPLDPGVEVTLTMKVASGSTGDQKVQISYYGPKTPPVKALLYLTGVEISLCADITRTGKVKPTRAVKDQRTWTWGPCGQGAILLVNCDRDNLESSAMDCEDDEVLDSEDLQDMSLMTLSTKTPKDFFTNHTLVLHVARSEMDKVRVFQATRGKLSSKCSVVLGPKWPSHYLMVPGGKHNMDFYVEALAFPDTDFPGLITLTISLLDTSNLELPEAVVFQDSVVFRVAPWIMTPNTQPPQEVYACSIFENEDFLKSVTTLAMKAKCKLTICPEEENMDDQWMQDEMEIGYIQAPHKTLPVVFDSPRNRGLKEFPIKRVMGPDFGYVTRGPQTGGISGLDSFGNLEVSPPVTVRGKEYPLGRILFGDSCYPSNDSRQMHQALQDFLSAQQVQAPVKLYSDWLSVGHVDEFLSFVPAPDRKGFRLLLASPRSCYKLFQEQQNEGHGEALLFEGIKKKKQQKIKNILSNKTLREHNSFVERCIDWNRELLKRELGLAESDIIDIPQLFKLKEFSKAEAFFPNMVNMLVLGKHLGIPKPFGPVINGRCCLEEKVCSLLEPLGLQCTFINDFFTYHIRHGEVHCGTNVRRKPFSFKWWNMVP

Row | Binder | ヒトPAD4酵素阻害活性 IC50 (BAEE citrullination, colorimetric)
1 | 抗PAD4抗体Lib2(4R)-1-47 (antibody, V domains shown) VH: EVQLLESGGGLVQPGGSLRLSCAASGFTFSTYAMGWVRQAPGKGLEFVAAIRNDGSWTGYGTPYKTRFTISRDNSKNTLYLQMNSLRAEDTAVYYCAKYTGSSGGSIGAWGQGTLVTVSS VL: SYELTQPPSVSVSPGQTARITCSGGNRNYYYGWYQQKPGQAPVTVIYANDKRPSGIPERFSGSNSGSTTTLTISGVQAEDEADYYCGTATTGKYVFGGGTKLTVLG | 9.6 nM
2 | ヒト化抗PAD4抗体G8ss (antibody, human IgG1, lambda, V domains shown) VH: not shown VL: SYELTQPPSVSVSPGQTARITCSGGNRNYYYGWYQQKPGQAPVTVIYANDKRPSGIPERFSGSNSGSTTTLTISGVQAEDEADYYCGTADTGKYVFGGGTKLTVLG | 20.3 nM
3 | 抗PAD4抗体2-1-47 (antibody, human IgG1, lambda, V domains shown) VH: EVQLLESGGGLVQPGGSLRLSCAASGFTFSTYAMGWVRQAPGKGLEFVAAIRNDGSWTGYGTPYKTRFTISRDNSKNTLYLQMSSLRAEDTAVYYCAKYTGSSGGSIGAWGQGTLVTVSS VL: SYELTQPPSVSVSPGQTARITCSGGNRNYYYGWYQQKPGQAPVTVIYANDKRPSGIPERFSGSNSGSTTTLTISGVQAEDEADYYCGTATTGKYVFGGGTKLTVLG | 12.2 nM
4 | ヒト化抗PAD4抗体G8 (antibody, human IgG1, lambda, V domains shown) VH: not shown VL: SYELTQPPSVSVSPGQTARITCSGGNRNYYYGWYQQKPGQAPVTVIYANDKRPSGIPERFSGSNSGSTTTLTISGVQAEDEADYYCGTADTGKYVFGGGTKLTVLG | 21.6 nM

Further lines, results first:

Row | ヒトPAD4酵素阻害活性 IC50 (BAEE citrullination, colorimetric) | Binder
5 | 15.3 nM | 抗PAD4抗体3-2-37 (antibody, human IgG1, lambda, V domains shown) VH: EVQLLESGGGLVQPGGSLRLSCAASGFTFSTYAMGWVRQAPGKGLEFVAAIRNDGSWTGIGYNQKSRFTISRDNSKNTLYLQMSSLRAEDTAVYYCGKYTGSSGGSIGAWGQGTLVTVSS VL: SYELTQPPSVSVSPGQTARITCSGGNRNYYYGWYQQKPGQAPVTVIYANDKRPSGIPERFSGSNSGSTTTLTISGVQAEDEADYYCGTALTGKYVFGGGTKLTVLG
6 | 8.3 nM | 抗PAD4抗体Lib2(5R)-2-25 (antibody, V domains shown) VH: EVQLLESGGGLVQPGGSLRLSCAASGFTFSTYAMGWVRQAPGKGLEFVAAIRNDGSWTGYPPPLKGRFTISRDNSKNTLYLQMNSLRAEDTAVYYCAKYTGSSGGSIGAWGQGTLVTVSS VL: SYELTQPPSVSVSPGQTARITCSGGNRNYYYGWYQQKPGQAPVTVIYANDKRPSGIPERFSGSNSGSTTTLTISGVQAEDEADYYCGTAYTGKYVFGGGTKLTVLG
7 | 13.4 nM | 抗PAD4抗体Lib1(6R)-2-37 (antibody, V domains shown) VH: EVQLLESGGGLVQPGGSLRLSCAASGFTFSTYAMGWVRQAPGKGLEFVAAIRNDGSWTGIGYNQKSRFTISRDNSKNTLYLQMNSLRAEDTAVYYCGKYTGSSGGSIGAWGQGTLVTVSS VL: SYELTQPPSVSVSPGQTARITCSGGNRNYYYGWYQQKPGQAPVTVIYANDKRPSGIPERFSGSNSGSTTTLTISGVQAEDEADYYCGTALTGKYVFGGGTKLTVLG
8 | 8.7 nM | 抗PAD4抗体Lib1(6R)-1-39 (antibody, V domains shown) VH: EVQLLESGGGLVQPGGSLRLSCAASGFTFSTYAMGWVRQAPGKGLEFVAAIRNDGSWTGTSVNAKTRFTISRDNSKNTLYLQMNSLRAEDTAVYYCAKYTGSSGGSIGAWGQGTLVTVSS VL: SYELTQPPSVSVSPGQTARITCSGGNRNYYYGWYQQKPGQAPVTVIYANDKRPSGIPERFSGSNSGSTTTLTISGVQAEDEADYYCGTATTGKYVFGGGTKLTVLG
9 | 8.8 nM | 抗PAD4抗体3-1-39 (antibody, human IgG1, lambda, V domains shown) VH: EVQLLESGGGLVQPGGSLRLSCAASGFTFSTYAMGWVRQAPGKGLEFVAAIRNDGSWTGTSVNAKTRFTISRDNSKNTLYLQMSSLRAEDTAVYYCAKYTGSSGGSIGAWGQGTLVTVSS VL: SYELTQPPSVSVSPGQTARITCSGGNRNYYYGWYQQKPGQAPVTVIYANDKRPSGIPERFSGSNSGSTTTLTISGVQAEDEADYYCGTATTGKYVFGGGTKLTVLG
10 | 7.6 nM | 抗PAD4抗体4-2-25 (antibody, human IgG1, lambda, V domains shown) VH: EVQLLESGGGLVQPGGSLRLSCAASGFTFSTYAMGWVRQAPGKGLEFVAAIRNDGSWTGYPPPLKGRFTISRDNSKNTLYLQMSSLRAEDTAVYYCAKYTGSSGGSIGAWGQGTLVTVSS VL: SYELTQPPSVSVSPGQTARITCSGGNRNYYYGWYQQKPGQAPVTVIYANDKRPSGIPERFSGSNSGSTTTLTISGVQAEDEADYYCGTAYTGKYVFGGGTKLTVLG
